Experimental data taken from the Human Domainome abundance scans (Beltran et al. 2025).

B1: Zinc finger homeobox protein 3, residues 2147 to 2202; numbered along this chain, Q15911 (parent)
chain: RPRTRITDDQLRVLRQYFDINNSPSEEQIKEMADKSGLPQKVIKHWFRNTLFKERQ

Variants of: B1
Experiment: abundance fitness (aPCA) (normalised: wild type 0, dead -1); higher = more abundant; growth selection in yeast, the domain comes from the species named
Settings: Homo sapiens

Abundance fitness of substitutions, site by site:
R12: C -0.067; L -0.085
N22: M 0.038; P -0.035; C 0.001; D -0.189; T 0.079; R 0.116; L -0.092; H 0.219; Q 0.038; F -0.222; Y -0.076; W -0.19; I -0.052; E -0.057; G -0.152; S 0.001; K -0.085; A 0.022; V -0.022
E27: A 0.027; Y -0.08; C -0.019; W -0.341; M -0.039; T -0.011; S 0.024; G -0.071; I -0.05; P -0.078; K 0.124; V 0.013; L -0.102; H -0.147; Q 0.034; D 0.075; R -0.046
I20: H -0.001; Y -0.237; W -0.184; T -0.052; C 0.1; P 0.036; E -0.228; F -0.037; K -0.081; V -0.074; A 0.009; L -0.036; G -0.045; Q -0.019; M 0.02; D -0.087; N 0.008
L11: Q -0.01; C -1.12; G -0.088; M -0.04; H -0.399; N -0.019; R 0.034; Y -0.297; T -0.026; A -0.019; S -0.161; D -0.182; I -0.126; F -0.216; E 0.142; V -0.252; K 0.095; P -0.962
E26: I 0.086; R -0.093; P 0.031; M -0.133; G -0.192; C 0.024; N -0.082; L -0.089; T -0.057; F -0.071; Y 0.004; D 0.063; V -0.082; H -0.001; K -0.016; Q 0.171; A -0.043; W -0.265
S25: E -0.111; G 0.024; F -0.623; P -0.191; K -0.045; Y -0.382; N -0.196; W -0.901; I -0.361; Q -0.223; R -0.202; C -0.244; T 0.012; D -0.225; M -0.523; H -0.537; A -0.14; V -0.356
Y17: Q -0.196; I -0.175; E -0.168; A -0.165; H -0.127; T -0.369; P -0.838; N -0.095; R -0.369; C -0.204; V -0.153; W -0.181; D -0.184; S -0.207; L -0.133; F 0.026; M 0.083
V13: F -0.012; S -0.033; E -0.01; N -0.227; P -0.587; K -0.054; G -0.415; H -0.199; Q 0.043; R -0.243; Y -0.037; I 0.097; A -0.22; W 0.003; L 0.055; T -0.044; C -0.149
Q10: I -0.464; L -0.453; E -0.394; A -0.263; K -0.359; H 0.025; N -0.477; P -0.741; T -0.357; D -0.308; W -0.718; Y -0.626; M -0.27; R -0.605; G -0.602; C -0.381; F -0.626
D9: R -0.143; Y -0.148; S 0.098; Q 0.018; W -0.171; T 0.038; V -0.172
